Test [1] deals with T1, human MET on NIH3T3-hMET cells (human, UniProt P08581 25-1390).
T1 construct: NIH3T3 cells transfected with a plasmid expressing hMET
As to the kind of experiment: flow cytometry, transfected NIH3T3 cells. On the procedure:
(§1) Specifically, CHO-hHER3 cells, CHO-fasHER3 cells, NIH3T3-hMET cells or NIH3T3-fasMET cells were transferred to a 96-well plate at a density of 5×10⁴ cells/well respectively. The antibodies were added to the 96-well plate, and incubated at 4° C. for 30 min.
A general note: A flow cytometer gives signals particle by particle.

Test [2] deals with T2, monkey MET on NIH3T3-fasMET cells (monkey, UniProt A0M8R7 25-1381).
T2 construct: NIH3T3 cells transfected with a plasmid expressing fasMET
T2 sequence (A0M8R7 25-1381 S170N/I621T limits assumed): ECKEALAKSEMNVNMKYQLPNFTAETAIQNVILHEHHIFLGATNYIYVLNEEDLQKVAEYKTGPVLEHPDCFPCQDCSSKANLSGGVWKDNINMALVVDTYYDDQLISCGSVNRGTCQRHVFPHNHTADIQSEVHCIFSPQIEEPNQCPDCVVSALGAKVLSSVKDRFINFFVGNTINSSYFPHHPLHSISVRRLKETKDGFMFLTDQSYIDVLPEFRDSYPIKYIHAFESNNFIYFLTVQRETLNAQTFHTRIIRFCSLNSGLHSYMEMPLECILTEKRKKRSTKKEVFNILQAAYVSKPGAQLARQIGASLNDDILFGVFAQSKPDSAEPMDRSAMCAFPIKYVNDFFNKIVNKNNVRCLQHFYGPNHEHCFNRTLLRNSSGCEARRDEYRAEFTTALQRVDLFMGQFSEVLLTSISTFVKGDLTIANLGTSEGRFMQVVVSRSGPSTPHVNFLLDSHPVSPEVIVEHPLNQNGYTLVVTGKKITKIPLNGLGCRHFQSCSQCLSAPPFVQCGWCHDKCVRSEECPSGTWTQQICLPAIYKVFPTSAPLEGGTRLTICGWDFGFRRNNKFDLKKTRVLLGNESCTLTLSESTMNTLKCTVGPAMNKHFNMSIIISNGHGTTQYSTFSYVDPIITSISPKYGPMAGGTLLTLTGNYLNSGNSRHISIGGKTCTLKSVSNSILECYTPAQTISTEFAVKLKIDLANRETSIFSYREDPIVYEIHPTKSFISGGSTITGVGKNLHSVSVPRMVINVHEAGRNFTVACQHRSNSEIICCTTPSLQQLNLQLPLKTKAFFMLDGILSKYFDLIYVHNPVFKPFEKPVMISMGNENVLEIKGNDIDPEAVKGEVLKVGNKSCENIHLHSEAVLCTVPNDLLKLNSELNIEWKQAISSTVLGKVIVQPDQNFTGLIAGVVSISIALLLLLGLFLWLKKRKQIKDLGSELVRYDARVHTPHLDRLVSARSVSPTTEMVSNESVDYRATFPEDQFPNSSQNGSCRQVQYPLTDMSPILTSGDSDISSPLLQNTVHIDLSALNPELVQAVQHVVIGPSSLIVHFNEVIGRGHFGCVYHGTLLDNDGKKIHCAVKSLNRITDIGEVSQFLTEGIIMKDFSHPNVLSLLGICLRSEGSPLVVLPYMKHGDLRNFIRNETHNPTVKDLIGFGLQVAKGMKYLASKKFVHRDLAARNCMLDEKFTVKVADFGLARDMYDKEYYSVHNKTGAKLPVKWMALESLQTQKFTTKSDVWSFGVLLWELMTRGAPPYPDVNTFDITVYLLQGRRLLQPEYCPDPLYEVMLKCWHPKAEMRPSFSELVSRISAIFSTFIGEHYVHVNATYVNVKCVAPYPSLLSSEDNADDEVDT
As to the kind of experiment: flow cytometry, transfected NIH3T3 cells. On the procedure: as §1

For test [3], the target named is T3, His-tagged human MET (hMET, Sino Biological, Inc., Cat #: 10692-H08H) (human, UniProt P08581 25-932).
T3 construct: Bought protein; not shown: His tag
T3 sequence (P08581 25-932 limits assumed): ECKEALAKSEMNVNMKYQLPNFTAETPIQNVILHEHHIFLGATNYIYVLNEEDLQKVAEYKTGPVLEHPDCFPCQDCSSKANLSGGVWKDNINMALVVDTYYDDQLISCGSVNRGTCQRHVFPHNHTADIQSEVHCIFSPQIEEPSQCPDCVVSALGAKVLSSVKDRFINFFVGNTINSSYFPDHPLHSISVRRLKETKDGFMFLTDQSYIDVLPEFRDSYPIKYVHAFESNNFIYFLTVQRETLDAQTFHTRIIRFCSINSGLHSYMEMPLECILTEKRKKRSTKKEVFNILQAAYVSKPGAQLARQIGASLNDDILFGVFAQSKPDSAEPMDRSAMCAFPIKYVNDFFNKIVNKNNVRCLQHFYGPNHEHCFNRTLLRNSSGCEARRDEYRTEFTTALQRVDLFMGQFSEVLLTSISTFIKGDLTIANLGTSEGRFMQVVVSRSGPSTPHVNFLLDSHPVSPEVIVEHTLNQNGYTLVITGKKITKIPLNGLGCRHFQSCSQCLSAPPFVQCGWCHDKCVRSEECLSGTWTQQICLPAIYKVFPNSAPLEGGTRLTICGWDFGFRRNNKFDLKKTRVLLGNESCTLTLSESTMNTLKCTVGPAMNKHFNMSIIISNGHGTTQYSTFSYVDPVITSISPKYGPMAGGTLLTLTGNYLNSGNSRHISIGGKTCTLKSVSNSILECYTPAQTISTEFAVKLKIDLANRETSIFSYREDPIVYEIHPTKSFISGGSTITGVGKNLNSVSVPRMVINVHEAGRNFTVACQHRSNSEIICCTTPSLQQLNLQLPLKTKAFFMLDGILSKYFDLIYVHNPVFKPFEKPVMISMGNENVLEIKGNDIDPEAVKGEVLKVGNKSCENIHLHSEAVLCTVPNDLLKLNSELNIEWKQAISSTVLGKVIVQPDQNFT
As to the kind of experiment: SPR, Ab captured on Protein A, antigen 400 nM. The procedure:
(§2) Purified antibodies were captured on the Protein A chip (Series S Sensor Chip Protein A) for the detection. 2 μg/mL antibodies were loaded at 10 μL/min to bind to hHER3, fasHER3, hMET or fasMET (400 and 0 nM). The flow rate was 30 μL/min, the binding and dissociation time were set to 180 s and 400 s, respectively. The chip was regenerated after the last injection of each titration with a glycine solution ([…]) at 30 μL/min for 30 seconds.
(SPR reads the build-up and loss of mass on a sensor chip optically.)

Test [4] deals with T4, His-tagged human HER3 protein (hHER3, ACRO Biosystems Inc., Cat #: ER3-H5223) (human, UniProt P21860 20-643).
T4 construct: Bought protein; also called hHER3-His; not shown: His tag
As to the kind of experiment: SPR, Ab captured on Protein A, antigen 400 nM. The procedure: as §2

The target in test [5] is T5, His-tagged monkey HER3 protein (fasHER3, Sino Biological, Inc., Cat #: 90043-K08H) (monkey).
T5 construct: Bought protein
Briefly: SPR, Ab captured on Protein A, antigen 400 nM. The procedure: as §2

The target of test [6] is T6, human HER3 on CHO-hHER3 cells (human, UniProt P21860 20-643).
T6 construct: CHO-S cells transfected with hHER3
Briefly: flow cytometry, transfected CHO cells. On the procedure:
as §1

Test [7] has as its target T7, monkey (Macaca fascicularis) HER3 on CHO-fasHER3 cells (monkey (Macaca fascicularis), UniProt P21860 20-643 (human entry)).
T7 construct: CHO-S cells transfected with fasHER3
T7 chain: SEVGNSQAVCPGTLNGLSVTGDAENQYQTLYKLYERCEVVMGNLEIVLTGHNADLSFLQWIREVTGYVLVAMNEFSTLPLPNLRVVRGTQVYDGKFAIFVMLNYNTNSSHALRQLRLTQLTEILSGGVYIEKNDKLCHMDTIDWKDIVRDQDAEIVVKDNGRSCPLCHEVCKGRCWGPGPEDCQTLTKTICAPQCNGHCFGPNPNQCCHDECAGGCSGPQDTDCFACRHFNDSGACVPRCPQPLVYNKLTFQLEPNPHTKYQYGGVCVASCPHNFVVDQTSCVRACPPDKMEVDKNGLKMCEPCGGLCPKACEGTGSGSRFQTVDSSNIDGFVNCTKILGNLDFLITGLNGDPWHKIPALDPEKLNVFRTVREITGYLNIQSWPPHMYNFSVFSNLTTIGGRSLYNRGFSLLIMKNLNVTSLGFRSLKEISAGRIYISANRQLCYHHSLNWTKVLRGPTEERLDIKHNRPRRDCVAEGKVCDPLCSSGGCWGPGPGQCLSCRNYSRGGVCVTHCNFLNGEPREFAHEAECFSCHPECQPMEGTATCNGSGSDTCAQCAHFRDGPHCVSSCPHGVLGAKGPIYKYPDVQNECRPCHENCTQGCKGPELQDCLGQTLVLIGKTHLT
Briefly: flow cytometry, transfected CHO cells. The procedure:
as §1

For orientation: Kd means the concentration at which binding is half-saturated. For orientation: koff means the first-order rate constant of dissociation. What is called kon is a measure of how fast the partners come together.

T1 sequence (P08581 25-1390 limits assumed): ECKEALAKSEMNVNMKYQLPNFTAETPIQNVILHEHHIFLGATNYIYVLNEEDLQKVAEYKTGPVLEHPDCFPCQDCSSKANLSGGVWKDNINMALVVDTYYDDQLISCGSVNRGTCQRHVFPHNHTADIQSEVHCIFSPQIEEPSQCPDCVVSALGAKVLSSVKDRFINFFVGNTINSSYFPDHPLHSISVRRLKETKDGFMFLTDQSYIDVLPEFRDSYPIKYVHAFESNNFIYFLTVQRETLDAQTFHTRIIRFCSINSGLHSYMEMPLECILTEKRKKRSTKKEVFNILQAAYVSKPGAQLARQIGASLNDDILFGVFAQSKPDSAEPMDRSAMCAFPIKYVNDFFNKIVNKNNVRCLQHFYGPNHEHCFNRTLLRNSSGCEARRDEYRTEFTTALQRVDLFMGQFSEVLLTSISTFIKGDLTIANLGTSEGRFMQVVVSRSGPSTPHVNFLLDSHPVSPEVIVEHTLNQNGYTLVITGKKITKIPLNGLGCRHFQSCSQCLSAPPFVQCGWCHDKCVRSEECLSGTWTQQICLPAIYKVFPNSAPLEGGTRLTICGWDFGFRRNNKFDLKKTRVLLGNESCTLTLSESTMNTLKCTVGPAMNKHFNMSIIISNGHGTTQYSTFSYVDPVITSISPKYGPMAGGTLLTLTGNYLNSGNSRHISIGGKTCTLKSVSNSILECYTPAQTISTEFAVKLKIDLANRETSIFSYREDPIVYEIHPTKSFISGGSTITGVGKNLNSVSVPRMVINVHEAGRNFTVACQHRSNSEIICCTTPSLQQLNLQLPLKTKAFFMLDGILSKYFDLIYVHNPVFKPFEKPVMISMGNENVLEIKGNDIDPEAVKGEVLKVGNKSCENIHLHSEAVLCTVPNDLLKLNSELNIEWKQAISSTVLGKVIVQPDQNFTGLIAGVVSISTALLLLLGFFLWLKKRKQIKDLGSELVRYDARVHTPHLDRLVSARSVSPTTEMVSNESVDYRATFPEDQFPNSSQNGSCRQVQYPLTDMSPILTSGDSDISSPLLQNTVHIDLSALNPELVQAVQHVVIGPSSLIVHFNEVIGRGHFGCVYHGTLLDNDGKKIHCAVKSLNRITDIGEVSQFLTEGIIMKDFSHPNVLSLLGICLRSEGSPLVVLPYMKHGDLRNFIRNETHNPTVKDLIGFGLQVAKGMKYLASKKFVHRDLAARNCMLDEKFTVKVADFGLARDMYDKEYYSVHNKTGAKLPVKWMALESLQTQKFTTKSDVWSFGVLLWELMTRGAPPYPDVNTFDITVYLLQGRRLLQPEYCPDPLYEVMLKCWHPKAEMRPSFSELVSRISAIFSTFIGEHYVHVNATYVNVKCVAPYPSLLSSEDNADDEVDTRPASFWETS

B1: anti-HER3/MET bispecific antibody 1C5-8D9 (bispecific antibody, V domains shown)
VH 1: QVQLVESGGGVVQPGKSLRLSCAASGFTFSRSGMHWVRQAPGKGLEWVALISFDGSNKYYADSVKGRFTISRDNSKNTLNLQMNSLRAEDTAVYYCAKGGFGVVIYDAFDIWGHGTMVTVSS
VH 2: QVQLQESGPGLVKPSETLSLTCTVSGGSISGHYWSWIRQSPGKGLEWIGYITYSGSTNYNPSLKSRVTISVDTSKNQFSLKLSSVTAADTAVYYCGTIAVAGRVYYYGVDVWGRGTTVTVSS
VL: not shown
As to B1, the “Positive Cells” value in test [1] came out at 99.8%; in test [2] it was 65.1%; in test [6], 64.8%; in test [7] it was 60.4%. Besides, the dissociation constant (Kd) was 22.5 nM in test [3], 31.1 nM in test [4] and 97 nM in test [5]. For the same molecule, the values for the off-rate (koff) in test [3], in test [4] and in test [5] were 0.000531 s⁻¹, 0.000605 s⁻¹ and 0.000671 s⁻¹, respectively. Besides, the on-rate (kon) came to 23600 M⁻¹ s⁻¹ in test [3], 19400 M⁻¹ s⁻¹ in test [4] and 6920 M⁻¹ s⁻¹ in test [5].

B2: anti-HER3/MET bispecific antibody 1C5-8H10 (bispecific antibody, V domains shown)
VH 1: B1 VH 1
VH 2: QVQLQQWGAGLLKPSETLSLTCAVYGGSFSGYYWTWIRQPPGKGLEWIGESNHGGSTNFNPSLKSRVTISVDTSKNHFSLKLSPVTAADTAVYYCTRGGTIFGLKDAFDIWGQGTMVTVSS
VL: not shown
Consider B2, for which the “Positive Cells” value was 99.8% in test [1], 54.8% in test [2], 67.3% in test [6] and 58.9% in test [7]. Also, the Kd in test [3] was 12.8 nM; in test [4], 28.5 nM; in test [5] it was 81.5 nM. For the same molecule, the koff in test [3] was 0.00427 s⁻¹; in test [4], 0.000593 s⁻¹; in test [5] it was 0.000655 s⁻¹. Moreover, the kon stood at 333000 M⁻¹ s⁻¹ in test [3], 20800 M⁻¹ s⁻¹ in test [4] and 8040 M⁻¹ s⁻¹ in test [5].

B3: anti-HER3/MET bispecific antibody 3E1-8E2 (bispecific antibody, V domains shown)
VH 1: EVQLVQSGPVLAKPTETLTLTCTVSGFSLSNIRMGVSWIRQPPGKALEWLAHIFSNDDKSYSPSLKNRLTISKDTSKSQVVLTMTTMDPMDTATYYCTRMKYSGGPFDYWGQGTLVTVSS
VH 2: QVQLVQSGPALVKPTQTLTLTCTFSGFSLYTSGVAVAWIRQPPGKALEWLALIYWDDDKWYTPSLKTRLSITKDTSKNQVVLTMTNMDPVDTATYYCAHRGSFNWNYGYFDYWGQGTLVTVSS
VL: not shown
For the molecule B3, the “Positive Cells” value stood at 99.5% in test [1], 54.8% in test [2], 58.4% in test [6] and 63.9% in test [7]. Moreover, the equilibrium dissociation constant (Kd) amounted to 16.9 nM in test [3], 13.2 nM in test [4] and 29 nM in test [5]. Further, the koff was 0.0012 s⁻¹ in test [3], 0.0035 s⁻¹ in test [4] and 0.00329 s⁻¹ in test [5]. Moreover, the figures for the on-rate (kon) in test [3], in test [4] and in test [5] were 71100 M⁻¹ s⁻¹, 266000 M⁻¹ s⁻¹ and 113000 M⁻¹ s⁻¹, respectively.

B4: anti-HER3/MET bispecific antibody 3E1-8D9 (bispecific antibody, V domains shown)
VH 1: B3 VH 1
VH 2: B1 VH 2
VL: not shown
Regarding B4, the “Positive Cells” value came out at 99.9% in test [1], 70.2% in test [2], 59% in test [6] and 58.6% in test [7]. Moreover, the Kd in test [3] turned out to be 21.8 nM; in test [4], 15 nM; in test [5], 33.1 nM. Also, the results for the koff in test [3], in test [4] and in test [5] were 0.00051 s⁻¹, 0.00341 s⁻¹ and 0.00322 s⁻¹, respectively. Moreover, the on-rate (kon) in test [3] was determined as 23400 M⁻¹ s⁻¹; in test [4], 227000 M⁻¹ s⁻¹; in test [5] it was 97300 M⁻¹ s⁻¹.

B5: anti-HER3/MET bispecific antibody 1C5-8E2 (bispecific antibody, V domains shown)
VH 1: B1 VH 1
VH 2: B3 VH 2
VL: not shown
B5: the “Positive Cells” value in test [1] came out at 99.6%; in test [2], 55.1%; in test [6], 56.9%; in test [7], 55.1%. In addition, the figures for the Kd in test [3], in test [4] and in test [5] were 18 nM, 32.7 nM and 92.5 nM, respectively. The off-rate constant (koff) in test [3] was determined as 0.00122 s⁻¹; in test [4], 0.000777 s⁻¹; in test [5] it was 0.000844 s⁻¹. Further, the on-rate (kon) in test [3] was 68000 M⁻¹ s⁻¹; in test [4], 23700 M⁻¹ s⁻¹; in test [5] it was 9120 M⁻¹ s⁻¹.

B6: anti-HER3/MET bispecific antibody 3E1-8H10 (bispecific antibody, V domains shown)
VH 1: B3 VH 1
VH 2: B2 VH 2
VL: not shown
With B6, the “Positive Cells” value was 99.7% in test [1], 54.6% in test [2], 72.1% in test [6] and 66% in test [7]. Further, the dissociation constant Kd in test [3] worked out at 12.7 nM; in test [4], 14.5 nM; in test [5] it was 32.2 nM. For the same molecule, the off-rate (koff) in test [3] was 0.00516 s⁻¹; in test [4], 0.00332 s⁻¹; in test [5], 0.00318 s⁻¹. Moreover, the results for the kon in test [3], in test [4] and in test [5] were 408000 M⁻¹ s⁻¹, 229000 M⁻¹ s⁻¹ and 98700 M⁻¹ s⁻¹, respectively.

B7: anti-HER3/MET bispecific antibody 1B2-8H10 (bispecific antibody, V domains shown)
VH 1: QVQLVQSGPVLVKPTETLTLTCTVSTFSLSNARMGVSWIRQPPGKALEWLAHIFSNDDKSYSPSLKSRLTISKDTSKTQVVLTMTNMDPVDTATYYCSRMRYSGGPFDYWGQGSLVTVSS
VH 2: B2 VH 2
VL: not shown
B7: the “Positive Cells” value came to 99.8% in test [1], 57.2% in test [2], 67.9% in test [6] and 64.4% in test [7]. In addition, the Kd in test [3] came to 10.9 nM; in test [4], 16.9 nM; in test [5], 38.7 nM. Moreover, the koff stood at 0.00626 s⁻¹ in test [3], 0.00265 s⁻¹ in test [4] and 0.00263 s⁻¹ in test [5]. Besides, the kon in test [3] turned out to be 574000 M⁻¹ s⁻¹; in test [4], 157000 M⁻¹ s⁻¹; in test [5] it was 67800 M⁻¹ s⁻¹.

B8: anti-HER3/MET bispecific antibody 1B2-8D9 (bispecific antibody, V domains shown)
VH 1: B7 VH 1
VH 2: B1 VH 2
VL: not shown
B8: the “Positive Cells” value in test [1] came to 99.8%; in test [2], 64.9%; in test [6], 54%; in test [7], 55.5%. Also, the equilibrium dissociation constant (Kd) in test [3] came to 35.7 nM; in test [4] it was 16.7 nM; in test [5], 38.9 nM. The off-rate constant (koff) in test [3] worked out at 0.000973 s⁻¹; in test [4], 0.00262 s⁻¹; in test [5] it was 0.00261 s⁻¹. Further, the on-rate (kon) in test [3] was 27200 M⁻¹ s⁻¹; in test [4] it was 157000 M⁻¹ s⁻¹; in test [5] it was 67100 M⁻¹ s⁻¹.

Values taken from US20260250418A1 (BIOCYTOGEN PHARMACEUTICALS BEIJING, published 2026).
